Test results: the supplement of paper PMC12042874
± gives the uncertainty stated by the source.

Assay: amyloid nucleation score (Sup35N fusion, yeast selection) (log enrichment); library NNK1; higher = more nucleation; inactive = no reads after selection
Outline: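 Nucleation score is defined as the DiMSum log enrichment of output over input reads, with centring on the mode score of non-aggregating sequences. A minimum of 100 input reads was required for each sequence. Reads came from Illumina sequencing of plasmid inserts from psi-negative yeast expressing Sup35N fused to peptides of 20 random codons, induced with 100 μM copper sulfate for 24 hours and grown 7 days at 30°C on medium lacking adenine and uracil.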

| Substance | amyloid nucleation score |
| --- | --- |
| SIDGWNSKVKGFEFRMGGT | -0.045 ± 0.32 |
| SIDVSDSSRDGYSDMWSKCK | -0.164 ± 0.24 |
| SIFLKIPNREVLSSFRWTCF | -0.372 ± 0.22 |
| SIFSSNCNL | -0.36 ± 0.24 |
| SIIYQVRRLCGSYVSILGSQ | 0.251 ± 0.69 |
| SIKCGVVHLNRMVRAQSKLC | 0.136 ± 1.5 |
| SIKFIRTYWWITNSVDKFV | inactive |
| SILCESFVGCLDAMRDRVYY | -0.036 ± 0.61 |
| SIQPIW | 0.952 ± 0.5 |
| SIVNVDVALSHLCSYQRSRM | 4.11 ± 0.1 |
| SIYALVSCSVFVTAMDAVQA | 4.17 ± 0.061 |
| SIYKSSEREVVY | inactive |
| SKCAVQCLVG | 0.986 ± 0.2 |
| SKCDQSIRYSRGNETPLDSL | 0.274 ± 0.83 |
| SKFTYRV | -0.302 ± 0.38 |
| SKFVT | 1.2 ± 0.9 |
| SKHRSIYFIPLSHVESVVVW | -0.192 ± 1.1 |
| SKIHYMF | -0.942 ± 0.57 |
| SKSFDRKMVC | -0.092 ± 0.33 |
| SKSGLDDGHDA | -0.335 ± 0.23 |
| SKTSEGLLLYVISYRNYYGP | 0.671 ± 0.4 |
| SKTVVTKVKLSIWAGRVLRF | -1.14 ± 1.9 |
| SKWLIRGCL | 1.6 ± 0.21 |
| SLAGFCMQPRTLLV | 0.86 ± 0.83 |
| SLAQFRWVV | 1.52 ± 0.13 |

| Substance | amyloid nucleation score |
| --- | --- |
| SLCVWDSFNPERTGLFMRWI | 0.99 ± 0.93 |
| SLDYKFSFLSQ | 6.963 ± 0.045 |
| SLEDEEQLYLANSIREGLAV | 0.76 ± 0.51 |
| SLEVRNRCNVYVAAANLLVM | 2.76 ± 0.095 |
| SLEWFSRWSN | 1.15 ± 0.37 |
| SLFEFWSDNFNQEQ | 1.49 ± 0.76 |
| SLGFIFTEILYIFIVAWFII | 0.198 ± 0.47 |
| SLILFV | 0.856 ± 0.45 |
| SLINTRVPPLENNAC | -0.443 ± 0.51 |
| SLITVSHMPWGCT | 0.342 ± 0.36 |
| SLIYGILCKINQ | -0.064 ± 0.44 |
| SLLLLMGALSHGMRLFKGSS | 0.268 ± 0.82 |
| SLLPDPHYMTQVW | -0.559 ± 0.55 |
| SLLTYQ | 0.757 ± 0.27 |
| SLMTQDCNFRYYLKRCI | 0.894 ± 0.63 |
| SLNFTDHIYYMDGLLIAVVE | 0.358 ± 0.32 |
| SLNVNLMSRVYSSAREGGVS | 1.73 ± 0.2 |
| SLPFVTLLNAMCVCSGANCL | 8.449 ± 0.045 |
| SLQISCQWYAVWGHMLLSDF | inactive |
| SLQPVYAATCSSFHYSFFAG | 4.89 ± 0.074 |
| SLRCVPVVSMRVRSDSSLYK | 0.529 ± 0.9 |
| SLRKKVSSVCSC | 0.838 ± 0.54 |
| SLRWSQSPFYFVTSIGRQGG | 0.585 ± 0.55 |
| SLSFSCSVKV | -0.149 ± 0.54 |
| SLSMDIAVRSTTNRHANNIL | -0.494 ± 1.1 |

| Substance | amyloid nucleation score |
| --- | --- |
| SLSMLTARGLILNMCNGMRF | 1.52 ± 0.84 |
| SLSRD | -0.393 ± 0.41 |
| SLTYCHSIIKDLETLIFRSK | 0.283 ± 0.61 |
| SLVSPRCSKMMFWGLPGVMM | 0.088 ± 0.29 |
| SLVVVGCWLAANQESK | 1.28 ± 0.33 |
| SLYCNGVRMPLAETSGNEHL | -0.091 ± 0.43 |
| SLYNTLEVNDNKHRVNFLVA | 0.652 ± 0.58 |
| SLYTKWKSILPNWVFVCIAL | -1.35 ± 0.38 |
| SMDNYIVNSSTVWPSSFSLK | 4.73 ± 0.075 |
| SMEGLMSLMHSRISRFVFRV | 0.168 ± 1.2 |
| SMHHGFYCDVWLGGVILRCK | 0.047 ± 0.56 |
| SMHSLGSHEGSRRIPGLSFD | -0.007 ± 1.2 |
| SMIPSNGTRLMLDSLTKYID | inactive |
| SMNHVFYYFIRMWTSM | 0.156 ± 0.63 |
| SMRCKSYGCC | 0.3 ± 0.59 |
| SMTSWWVRGLLPVNGD | 2.53 ± 0.13 |
| SMVPQTMGVSQESRCYAGSC | -0.215 ± 0.65 |
| SMYSNRHHDWFR | -0.412 ± 1.4 |
| SNAIVTFIVGVAAPGTYYS | 6.47 ± 0.062 |
| SNCERAIAKSHLVARPFSVS | 0.16 ± 0.73 |
| SNDVIVWYPIDEGHAGCAYL | 1.75 ± 0.66 |
| SNECLRNGAFYDCPVREAWM | -0.346 ± 0.27 |
| SNEYLCYYMSTNA | -0.345 ± 0.39 |
| SNFFVRFNTVTNFSMWDEYY | inactive |
| SNFINLGRWFRIDL | 0.377 ± 0.53 |

| Substance | amyloid nucleation score |
| --- | --- |
| SNHDNFYPVVLCMESKYNIE | 0.302 ± 0.34 |
| SNKSSSDIDCVYLENCSTSG | 1.43 ± 0.36 |
| SNLLGSMFLLCHQIKHRPEI | -0.764 ± 0.34 |
| SNMRRASFNHGGRWNSGRGN | -1.1 ± 2.4 |
| SNNELSTMTRL | -1.01 ± 1.2 |
| SNSFYREVNWGNRT | 0.216 ± 0.57 |
| SNSSLECYCMNVVRFHLGLS | 0.735 ± 0.18 |
| SNSVRNRRIFKKSTVRH | -0.055 ± 0.36 |
| SNVHCPWKL | -1.74 ± 2.7 |
| SNWFCGFYDWISVLFNSLKL | 1.42 ± 0.65 |
| SPKPYFSRKYVIKIHKRS | -1.54 ± 1.4 |
| SPKSPPL | -0.053 ± 0.62 |
| SPPFQSELMLPLRLSGLVSS | 1.28 ± 0.93 |
| SPPMSKLVMATRVLKCMDPS | 0.086 ± 0.79 |
| SPRAWRMGHGLVGWVMEKKG | 0.476 ± 1.1 |
| SPRLAGMVSMVDKCRRASGR | 0.097 ± 0.33 |
| SPTTKCLPSERSSINCNLMT | 0.311 ± 0.68 |
| SQDGISMMLGMSGWRGHASV | 0.659 ± 1 |
| SQFISK | 1.14 ± 0.52 |
| SQLARLLFIAGIVPTRARVI | 0.144 ± 0.64 |
| SQVLGSLLFRSPRVWICVAG | -0.969 ± 2.1 |
| SRAAFVSSKPYMSWGVTYVH | -0.792 ± 1.3 |
| SRDASLDRPSRRV | -0.465 ± 0.49 |
| SRFKTDYTG | -0.492 ± 0.68 |
| SRGLFCWWRSTWRGVL | -1.28 ± 2.4 |

| Substance | amyloid nucleation score |
| --- | --- |
| SRKKKIVITEPNHSSRHQSV | 0.003 ± 0.86 |
| SRKVKVWPVGLRRLVMFFVN | 1.43 ± 0.53 |
| SRLVCLVNYVGGGYIETITL | 4.02 ± 0.1 |
| SRNLGMYHMYFKFPWCMNPM | -0.15 ± 0.46 |
| SRNVVLPL | 0.195 ± 0.43 |
| SRPDTQPEEAQ | -0.02 ± 0.21 |
| SRPQLDKTLFGLVA | 0.771 ± 0.62 |
| SRRYLRVGCKVNVHTFGLYL | -0.502 ± 1 |
| SRVISLPVLKI | -0.302 ± 0.9 |
| SRVLRPS | -0.174 ± 0.4 |
| SRVSLRRQCYVRVNGLCLYI | 1.84 ± 0.3 |
| SRVSYPGFYYGCPVFQYYSA | 7.589 ± 0.053 |
| SSFSLGSTLF | 0.597 ± 0.52 |
| SSFSVVFDSHVSS | 0.382 ± 1.4 |
| SSGHSVRVDNKTGVWVWPVG | -0.329 ± 1.6 |
| SSGSMCTLFSSE | 1.75 ± 0.57 |
| SSIESSYGKFLRGIVSESIK | 0.485 ± 0.55 |
| SSIMHSG | 0.925 ± 1.1 |
| SSISV | 2.35 ± 0.53 |
| SSLSSMLRGSWAGYVLNCL | inactive |
| SSLVVWNTQSSTLMTLLSYS | -0.915 ± 0.49 |
| SSNFSPLTIVVYNFCI | 7.744 ± 0.051 |
| SSRFVWIASKINILYNFQTY | -0.403 ± 0.7 |
| SSSKGSMENYISYRSL | -0.703 ± 0.32 |
| SSSRNLVSSRCLQVYLPMHA | 0.986 ± 0.71 |

| Substance | amyloid nucleation score |
| --- | --- |
| SSSSML | -0.202 ± 0.47 |
| SSSWTTCY | 2.15 ± 0.1 |
| SSTAEDTMWARGSNKTLYQS | 0.148 ± 0.44 |
| SSTFCVAQYQSYWLCEVKWV | 0.086 ± 1.4 |
| SSTILQLCSPNRRLRSTKLG | 1.97 ± 0.7 |
| SSVFCFIGKASEAVILAIYC | -0.052 ± 0.79 |
| SSYFTKM | 0.548 ± 0.34 |
| SSYRNWYRRSGDQLYYLEP | 0.876 ± 0.42 |
| SSYVPSCCYWAVWFCVRGKY | 1.58 ± 0.46 |
| STFFSY | inactive |
| STFIDGSGIVALHCNSGCLA | 0.86 ± 0.73 |
| STHNTRFGVY | 0.167 ± 0.24 |
| STIMMF | 0.289 ± 0.52 |
| STLDLLCYFRREADQTINKR | 0.336 ± 0.36 |
| STNLMKMWLFHLRDTAR | 0.583 ± 0.37 |
| STRICWGTCFDKLDMGGSR | 1.95 ± 0.34 |
| STWLLGQRRYPRHKERGRAR | 0.101 ± 0.35 |
| SVASRACW | 0.139 ± 0.8 |
| SVGGVAGEF | -0.087 ± 0.96 |
| SVGMVLFLGCGLLLFRFLCG | -0.359 ± 1.2 |
| SVKSIRCLCSVVEYKETGHR | 0.438 ± 0.34 |
| SVLVWADLCHDTEA | 0.42 ± 0.84 |
| SVNRCGVYFTEGFFSLRWS | 1.13 ± 0.25 |
| SVPITLIGALGVKM | 0.177 ± 0.57 |
| SVPVSTTDWNSGFLWAGGCS | 0.513 ± 0.52 |

| Substance | amyloid nucleation score |
| --- | --- |
| SVQDFPDTSNNLASYVPSSW | -0.292 ± 0.74 |
| SVSVNHSLPTLESDL | -0.682 ± 0.62 |
| SVTVM | 1.74 ± 0.49 |
| SVVLQTHFAFSSFELKSKVA | -0.54 ± 0.39 |
| SVVTFT | 0.575 ± 0.49 |
| SVWDERIPGGYSPIRVCPSW | -0.337 ± 0.74 |
| SVWMCM | 2.64 ± 0.1 |
| SVWVVCFVSRNVLVMFNSNF | inactive |
| SWAWIACIGAMNPEN | -0.478 ± 1.4 |
| SWDEAVSWHSRSVVSAGGVA | -0.813 ± 1.3 |
| SWDVAYVSMF | 0.124 ± 0.6 |
| SWGMVFLNSRVPWRVMFNSC | 0.154 ± 0.48 |
| SWKIFIRIMTDYSIQFAYSY | 1.88 ± 0.098 |
| SWLDLNLIDHQAFAFSSFGQ | 0.183 ± 0.3 |
| SWMSRKEENSGLILVAVYLV | 1.29 ± 0.76 |
| SWQSVSSAISV | -0.234 ± 0.85 |
| SWTTARLNRSRSIFKNLRQE | 0.028 ± 0.46 |
| SWWVGTCFSGQWTVLGFP | 0.961 ± 0.69 |
| SWYIKVFRFGLFHWSSGVGW | inactive |
| SYCTGLFWEKRVVIMLVSQV | -0.103 ± 0.53 |
| SYGSKFWEFLHFGESV | -0.179 ± 0.66 |
| SYHNLCGSESGQVVNNQDRM | -0.852 ± 0.51 |
| SYHPLHVCCSSVFRELVIRD | 2.11 ± 0.43 |
| SYHVMNKDYMVYFKNTYKDK | 4.68 ± 0.078 |
